What was measured:
cryo-EM structure = biological target: the molecule itself; test: cryo-EM structure
MZT2:GST-GCP2-NHD = MZT2:GST-GCP2-NHD (human, UniProt Q6P582 1-158; Q9BSJ2 1-110); test: pull-down
Chain of MZT2:GST-GCP2-NHD (Q6P582 whole entry, chain 1 of 2): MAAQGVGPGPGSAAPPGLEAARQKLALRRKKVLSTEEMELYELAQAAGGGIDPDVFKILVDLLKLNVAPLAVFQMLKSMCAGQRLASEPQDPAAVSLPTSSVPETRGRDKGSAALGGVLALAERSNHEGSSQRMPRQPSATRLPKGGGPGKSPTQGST
Chain of MZT2:GST-GCP2-NHD (Q9BSJ2 1-110, chain 2 of 2): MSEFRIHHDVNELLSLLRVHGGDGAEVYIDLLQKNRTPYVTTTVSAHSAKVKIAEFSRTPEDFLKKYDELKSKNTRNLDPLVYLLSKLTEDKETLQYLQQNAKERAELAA

TVSPTRARNMKDFENQITELKKENFNLKLRIYFLEERMQQEFHGPTEHIY (domain or fragment, human, UniProt Q96SN8 51-100, looked up) [CDK5RAP2(51-100)]
binding result (cryo-EM structure): binds

B1: CDK5RAP2(44-93) (domain or fragment, human)
chain: SNIGSGGTPSTGSSLPNVSEETVSPTRARNMKDFENQITELKKENFNLKLRIYFLEERMQQEFH
Kd (MZT2:GST-GCP2-NHD): ≥ 10 µM

Reference: article doi:10.1101/2023.12.14.571518 (bioRxiv, 2023)
